Like-named read-outs stand apart in the source and are kept apart here. Where no end group is shown, it is not given here. The star is where a group is joined. Biotin = O=C1N[C@H]2[C@H](CS[C@H]2CCCCC(=O)*)N1
T1: biotinylated NANP-peptide (Plasmodium falciparum)
T1 construct: also called NANP-repeat region of CSP
T1 peptide: Biotin-NANPNANPNANPNANPNA

T2: biotinylated NPDP-peptide (Plasmodium falciparum, also: biotinylated)
T2 peptide: KQPADGNPDPNANPN

T3: biotinylated NPDP19-peptide (Plasmodium falciparum)
T3 peptide: Biotin-KQPADGNPDPNANPNVDPN


What was measured:
[1] = biological target: T1, biotinylated NANP-peptide; test: ELISA, biotinylated peptide on avidin-coated plates, titrated IgG
Experimental: (§1) To test specific antibody binding to (i) the NANP-repeat region of CSP and (ii) the N-terminal region of CSP covering the junction between the N-terminal domain and the NANP-repeats, ELISA plates were coated with 10 μg/ml of avidin (Sigma). […] The plates were washed and incubated with titrated monoclonal antibodies, followed by 1/500 AP-conjugated goat anti-human IgG (Southern Biotech) and pNPP substrate. EC50 (ng/ml) values were calculated for every sample tested by nonlinear regression analysis using the Graph Pad Prism 7 software.

[2] = biological target: T2, biotinylated NPDP-peptide; test: as above
Experimental: as §1

[3] = biological target: T3, biotinylated NPDP19-peptide; test: ELISA, biotinylated peptide on streptavidin-coated plates
[4] = biological target: T1, biotinylated NANP-peptide; test: as above
[5] = biological target: T1, biotinylated NANP-peptide; test: ELISA, biotinylated peptide on avidin-coated plates, titrated IgG
Experimental: as §1

[6] = biological target: T2, biotinylated NPDP-peptide; test: as above
Experimental: as §1

Binder	EC50 [1] [µg/mL]	EC50 [2] [µg/mL]	binding result [3]	binding result [4]	EC50 [5] [µg/mL]	EC50 [6] [µg/mL]
MGU10 (antibody, V domains shown, also called parental antibody MGU10) VH: QVQLVESGGGVVQPGRSLRLSCAASGFAFSNYGMNWVRQAPGKGLEWVAVIWHDGSLKYYTQSVKGRFTISRDNAKNTLFLQMDSLSADDTAMYYCTVWYLETPDDGFDIWGRGTMVTVSS VL: QLVLTQPPSASASLGVSVTLTCTLSHGHTSKAIAWHQQQPGKGPRYLMKVNSDGSHTKGAAVPDRFSGSTSGAERHFTISNLQSDDEADYYCQAWDSGIWVFGGGTKLTVL	0.0343	0.0261	–	–	–	–
MGU10variant3 (antibody, V domains shown, Expressed as IgG1; also called MGU10v3) VH: QVQLVESGGGVVQPGRSLRLSCAASGFAFSNYGMNWVRQAPGKGLEWVAVIWHDGSLKYYTQSVKGRFTISRDNAKNTLFLQMDSLSADDTAMYYCTVWYLETPDDGFDIWGRGTMVTVSS VL: QLVLTQPPSASASLGVSVTLTCTLSHGHTSKAIAWHQQQPGKGPRYLMKVNSDGSHTKGAAVPDRFSGSTSGAERHFTISNLQSDDEADYYCQAWESGIWVFGGGTKLTVL	0.0263	0.0251	–	–	–	–
MGU10variant8 (antibody, V domains shown, also called MGU10v8) VH: QVQLVESGGGVVQPGRSLRLSCAASGFAFSNYGMNWVRQAPGKGLEWVAVIWHDGSLKYYTQSVKGRFTISRDNAKNTLFLQMDSLSAEDTAMYYCTVWYLETPDEGFDIWGRGTMVTVSS VL: QLVLTQPPSASASLGVSVTLTCTLSHGHTSKAIAWHQQQPGKGPRYLMKVNSDGSHTKGAAVPDRFSGSTSGAERHFTISNLQSDDEADYYCQAWDSGIWVFGGGTKLTVL	–	–	binds	binds	–	–
MGU10variant2 (antibody, V domains shown, Expressed as IgG1; also called MGU10v2) VH: QVQLVESGGGVVQPGRSLRLSCAASGFAFSNYGMNWVRQAPGKGLEWVAVIWHDGSLKYYTQSVKGRFTISRDNAKNTLFLQMDSLSADDTAMYYCTVWYLETPDEGFDIWGRGTMVTVSS VL: QLVLTQPPSASASLGVSVTLTCTLSHGHTSKAIAWHQQQPGKGPRYLMKVNSDGSHTKGAAVPDRFSGSTSGAERHFTISNLQSDDEADYYCQAWDSGIWVFGGGTKLTVL	0.0268	0.0204	binds	–	–	–
MGU10variant1 (antibody, V domains shown, Expressed as IgG1 in Expi293F cells and tested as quantified culture supernatant; also called MGU10v1) VH: QVQLVESGGGVVQPGRSLRLSCAASGFAFSNYGMHWVRQAPGKGLEWVAVIWHDGSLKYYTQSVKGRFTISRDNAKNTLFLQMDSLSADDTAMYYCTVWYLETPDDGFDIWGQGTMVTVSS VL: QLVLTQPPSASASLGVSVTLTCTLSHGHTSKAIAWHQQQPGKGPRYLMKVNSDGSHTKGAAVPDRFSGSTSGAERHFTISNLQSDDEADYYCQAWDSGIWVFGGGTKLTVL	0.0285	0.0225	–	–	–	–
MGH2 (antibody, V domains shown, also called parental antibody MGH2) VH: QVQLVESGGGVVQPGGSLRLSCTASGFSFSSYAMHWVRQAPGKGLEWVAYTRYDGSNKFYLDSVQGRFTISRDNSKNTLYLEMDSLRLEDTAVYFCAKVGDGTVAGTIDYWGQGTLVTVSS VL: YIVMTQSPLSLPVTLGQPASISCRSSQSLVYSDGNTYLNWYQQRPGQSPRRLIYKVSNRDSGVPDRFSGSGSGTDFTLKISRVEAEDVGVYYCMQGTHWWTFGQGTKVEIK	–	–	–	–	0.0279	0.0488
MGH2variant1 (antibody, V domains shown, Expressed as IgG1; also called MGH2v1) VH: QVQLVESGGGVVQPGGSLRLSCTASGFSFSSYAMHWVRQAPGKGLEWVAYTRYDGSNKFYLDSVQGRFTISRDNSKNTLYLEMDSLRLEDTAVYFCAKVGDGTVAGTIDYWGQGTLVTVSS VL: YIVMTQSPLSLPVTLGQPASISCRSSQSLVYSDGNTYLNWYQQRPGQSPRRLIYKVSNRDSGVPDRFSGSGSGTDFTLKISRVEAEDVGVYYCMQGTHFWTFGQGTKVEIK	–	–	–	–	0.0223	0.0658

Reference: patent publication US20230084102A1 (HUMABS BIOMED, published 2023)
